In patent US20160333096A1 (published 2016) one finds Kd, koff and kon data, which are given here for two molecules.

Where only a bound is given, the exact number is not on record here.

Assay [1] deals with T1, canine PD-1 antigen (canine).
T1 construct: also called cPD-1; canine Programmed Death Receptor 1
T1 chain: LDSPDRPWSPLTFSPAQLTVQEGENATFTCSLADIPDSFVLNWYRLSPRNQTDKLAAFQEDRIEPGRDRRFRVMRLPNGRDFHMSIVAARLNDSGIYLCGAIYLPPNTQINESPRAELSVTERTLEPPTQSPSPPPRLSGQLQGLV
In words: SPR (Biacore T200), canine PD-1 amine-coupled to chip, antibody as analyte, 1:1 fit; off-rate below detection limit. An excerpt:
(§1) Approximately 70 resonance units (RU) of the canine PD-1 antigen was immobilized directly by amine coupling. Affinity measurements were made via label-free surface plasmon resonance based technology (e.g., Biacore® T200) with an association time of 300 seconds, a dissociation time of 1200 seconds, and at concentrations of 50, 100, 200 (×2) 400, and 800 nanomolar (nM). A fitting model of 1:1 binding was used. […] Moreover, the mouse anti-canine PD-1 monoclonal antibody and the corresponding caninized mouse anti-canine PD-1 monoclonal antibody from the same clone yielded strikingly similar Kd values (see Table 5 below).
(SPR reads the build-up and loss of mass on a sensor chip optically.)

The target in assay [2] is T1, canine PD-1 antigen. The assay can be described thus: SPR (Biacore T200), canine PD-1 amine-coupled to chip, antibody as analyte, 1:1 fit.
From the text: as §1

B1: Murine 2H9 (antibody, V domains shown)
VH: EVQLQQSVAELVRPGASVKLSCTASGFNIKNTYMHWIKQRPEQGLEWIGRIAPANVDTKYAPKFQGKATITADTSSNTAYMQLSTLTSEDTAIYYCVLIYYDYDGDIDVWGTGTTVTVSS
VL: DIQMNQSPSSLSASLGDTITITCHASQNINVWLSWYQQRPGNIPKLLIYKASHLHTGVPSRFSGSGSGTGFTLTISSLQPEDIATYYCQQGQSWPLTFGAGTKLELK
notes: also called mAb 2H9
As to B1, in assay [1], the equilibrium dissociation constant (Kd) is not above 0.2 nM and the koff was not above 5e-06 s⁻¹. The molecule further yielded a kon in assay [2] of 23000 M⁻¹ s⁻¹.

B2: Murine 3B6 (antibody, V domains shown)
VH: QIQLVQSGPELKKPGETVKISCKASGYTFTTYGMSWVKQAPGKGLKWMGWINIYSGIPTYADDFKGRFAFSLETSASTAYLQIDNLKNEDTATYFCARFDGPDYWGQGTTLTVSS
VL: DIVMTQSPSSLAVSVGRKVTMSCKSSQSLLNSVNQKNYLAWYQQKPGQSPKVLVYFASARVSGVPDRFIGSGSGTDFTLAISSVQAEDLTTYFCQQYFSTPLTFGAGTKLELK
notes: Mouse monoclonal IgG from hybridoma; also called mAb 3B6
In the case of B2, in assay [2], the equilibrium dissociation constant (Kd) turned out to be 2 nM, the off-rate (koff) amounted to 3.4e-05 s⁻¹ and the kon amounted to 18000 M⁻¹ s⁻¹.

Usually Kd stands for a measure of binding affinity in units of concentration. Read a high Kd as a looser complex. One may read the koff as the rate constant with which the complex falls apart. A higher koff goes with fast dissociation. Usually kon stands for the rate constant with which the complex forms. Lower therefore signals slower complex formation.
